Test results: patent publication US20140087995A1 (published 2014)
Numbered stars: 1 amine (or outer) side, 2 acyl side, 3 side chain; on linkers, the order of the positions; unused ones are H or OH. Bridge positions count the residues as written; N and C are the ends. Side chains are listed from the residue outwards. Ends that are not written are not given here. * marks the point of attachment. C20 diacid = O=C(O)CCCCCCCCCCCCCCCCCCC(=O)*; γGlu = O=C(O)[C@H](CCC(=O)[*:2])N[*:1]; AEEA = NCCOCCOCC(=O)O

T1: human calcitonin receptor (human, UniProt P30988 25-474)
T1 construct: whole, on cells; Assay used cell membranes of the transfected BHK cells; also called hCTR; hCT
T1 sequence (looked up): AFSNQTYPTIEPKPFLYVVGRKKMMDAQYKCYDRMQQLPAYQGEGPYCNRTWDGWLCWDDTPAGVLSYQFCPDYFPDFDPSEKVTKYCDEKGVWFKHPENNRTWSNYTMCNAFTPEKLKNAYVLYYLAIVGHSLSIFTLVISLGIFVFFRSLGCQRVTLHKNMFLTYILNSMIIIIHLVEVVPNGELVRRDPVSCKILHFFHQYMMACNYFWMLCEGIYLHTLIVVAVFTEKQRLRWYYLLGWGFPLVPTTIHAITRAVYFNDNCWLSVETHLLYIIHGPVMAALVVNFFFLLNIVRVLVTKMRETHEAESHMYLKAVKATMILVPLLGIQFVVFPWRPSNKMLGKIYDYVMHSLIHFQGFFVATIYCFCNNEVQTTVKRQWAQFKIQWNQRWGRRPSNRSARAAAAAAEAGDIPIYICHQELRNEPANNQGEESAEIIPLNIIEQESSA

B1: N^α1-[(4S)-4-carboxy-4-(19-carboxynonadecanoylamino)butanoyl]-[His14,Arg17,Pro21,Pro27,Glu35]-h-amylin (peptide)
peptide: {C20 diacid-γGlu}-KCNTATCATQRLAHFLRHSSPNFGAIPSSTNVGSETY-NH2
modifications: disulfide 2-7
SMILES: CC[C@H](C)[C@H](NC(=O)[C@H](C)NC(=O)CNC(=O)[C@H](Cc1ccccc1)NC(=O)[C@H](CC(N)=O)NC(=O)[C@@H]1CCCN1C(=O)[C@H](CO)NC(=O)[C@H](CO)NC(=O)[C@H](Cc1c[nH]cn1)NC(=O)[C@H](CCCNC(=N)N)NC(=O)[C@H](CC(C)C)NC(=O)[C@H](Cc1ccccc1)NC(=O)[C@H](Cc1c[nH]cn1)NC(=O)[C@H](C)NC(=O)[C@H](CC(C)C)NC(=O)[C@H](CCCNC(=N)N)NC(=O)[C@H](CCC(N)=O)NC(=O)[C@@H](NC(=O)[C@H](C)NC(=O)[C@@H]1CSSC[C@H](NC(=O)[C@H](CCCCN)NC(=O)CC[C@H](NC(=O)CCCCCCCCCCCCCCCCCCC(=O)O)C(=O)O)C(=O)N[C@@H](CC(N)=O)C(=O)N[C@@H]([C@@H](C)O)C(=O)N[C@@H](C)C(=O)N[C@@H]([C@@H](C)O)C(=O)N1)[C@@H](C)O)C(=O)N1CCC[C@H]1C(=O)N[C@@H](CO)C(=O)N[C@@H](CO)C(=O)N[C@H](C(=O)N[C@@H](CC(N)=O)C(=O)N[C@H](C(=O)NCC(=O)N[C@@H](CO)C(=O)N[C@@H](CCC(=O)O)C(=O)N[C@H](C(=O)N[C@@H](Cc1ccc(O)cc1)C(N)=O)[C@@H](C)O)C(C)C)[C@@H](C)O
notes: Synthetic analogue; also called compound 30
B2: N^ε1-[2-[2-[2-[[2-[2-[2-[[(4S)-4-carboxy-4-(19-carboxynonadecanoylamino)butanoyl]amino]ethoxy]ethoxy]acetyl]amino]ethoxy]ethoxy]acetyl]-[Arg17,Pro21,Pro27,Glu35 … (peptide)
peptide: K([AEEA-AEEA-γGlu-C20 diacid])CNTATCATQRLANFLRHSSPNFGAIPSSTNVGSETY-NH2
modifications: disulfide 2-7; N-terminus assumed
SMILES: CC[C@H](C)[C@H](NC(=O)[C@H](C)NC(=O)CNC(=O)[C@H](Cc1ccccc1)NC(=O)[C@H](CC(N)=O)NC(=O)[C@@H]1CCCN1C(=O)[C@H](CO)NC(=O)[C@H](CO)NC(=O)[C@H](Cc1c[nH]cn1)NC(=O)[C@H](CCCNC(=N)N)NC(=O)[C@H](CC(C)C)NC(=O)[C@H](Cc1ccccc1)NC(=O)[C@H](CC(N)=O)NC(=O)[C@H](C)NC(=O)[C@H](CC(C)C)NC(=O)[C@H](CCCNC(=N)N)NC(=O)[C@H](CCC(N)=O)NC(=O)[C@@H](NC(=O)[C@H](C)NC(=O)[C@@H]1CSSC[C@H](NC(=O)[C@@H](N)CCCCNC(=O)COCCOCCNC(=O)COCCOCCNC(=O)CC[C@H](NC(=O)CCCCCCCCCCCCCCCCCCC(=O)O)C(=O)O)C(=O)N[C@@H](CC(N)=O)C(=O)N[C@@H]([C@@H](C)O)C(=O)N[C@@H](C)C(=O)N[C@@H]([C@@H](C)O)C(=O)N1)[C@@H](C)O)C(=O)N1CCC[C@H]1C(=O)N[C@@H](CO)C(=O)N[C@@H](CO)C(=O)N[C@H](C(=O)N[C@@H](CC(N)=O)C(=O)N[C@H](C(=O)NCC(=O)N[C@@H](CO)C(=O)N[C@@H](CCC(=O)O)C(=O)N[C@H](C(=O)N[C@@H](Cc1ccc(O)cc1)C(N)=O)[C@@H](C)O)C(C)C)[C@@H](C)O
notes: Synthetic analogue; also called compound 25
B3: N^ε1-[2-[2-[2-[[(4S)-4-carboxy-4-(19-carboxynonadecanoylamino)butanoyl]amino]ethoxy]ethoxy]acetyl]-[Arg17,Pro21,Pro27,Pro31]-h-amylin (peptide)
peptide: K([AEEA-γGlu-C20 diacid])CNTATCATQRLANFLRHSSPNFGAIPSSTPVGSNTY-NH2
modifications: disulfide 2-7; N-terminus assumed
SMILES: CC[C@H](C)[C@H](NC(=O)[C@H](C)NC(=O)CNC(=O)[C@H](Cc1ccccc1)NC(=O)[C@H](CC(N)=O)NC(=O)[C@@H]1CCCN1C(=O)[C@H](CO)NC(=O)[C@H](CO)NC(=O)[C@H](Cc1c[nH]cn1)NC(=O)[C@H](CCCNC(=N)N)NC(=O)[C@H](CC(C)C)NC(=O)[C@H](Cc1ccccc1)NC(=O)[C@H](CC(N)=O)NC(=O)[C@H](C)NC(=O)[C@H](CC(C)C)NC(=O)[C@H](CCCNC(=N)N)NC(=O)[C@H](CCC(N)=O)NC(=O)[C@@H](NC(=O)[C@H](C)NC(=O)[C@@H]1CSSC[C@H](NC(=O)[C@@H](N)CCCCNC(=O)COCCOCCNC(=O)CC[C@H](NC(=O)CCCCCCCCCCCCCCCCCCC(=O)O)C(=O)O)C(=O)N[C@@H](CC(N)=O)C(=O)N[C@@H]([C@@H](C)O)C(=O)N[C@@H](C)C(=O)N[C@@H]([C@@H](C)O)C(=O)N1)[C@@H](C)O)C(=O)N1CCC[C@H]1C(=O)N[C@@H](CO)C(=O)N[C@@H](CO)C(=O)N[C@H](C(=O)N1CCC[C@H]1C(=O)N[C@H](C(=O)NCC(=O)N[C@@H](CO)C(=O)N[C@@H](CC(N)=O)C(=O)N[C@H](C(=O)N[C@@H](Cc1ccc(O)cc1)C(N)=O)[C@@H](C)O)C(C)C)[C@@H](C)O
notes: Synthetic analogue; also called compound 49
B4: N^α1N^α1-[(4S)-4-carboxy-4-(19-carboxynonadecanoylamino)butanoyl]-[Glu14,Arg17,Pro21,Pro27,Glu35]-h-amylin (peptide)
peptide: {C20 diacid-γGlu}-KCNTATCATQRLAEFLRHSSPNFGAIPSSTNVGSETY-NH2
modifications: disulfide 2-7
SMILES: CC[C@H](C)[C@H](NC(=O)[C@H](C)NC(=O)CNC(=O)[C@H](Cc1ccccc1)NC(=O)[C@H](CC(N)=O)NC(=O)[C@@H]1CCCN1C(=O)[C@H](CO)NC(=O)[C@H](CO)NC(=O)[C@H](Cc1c[nH]cn1)NC(=O)[C@H](CCCNC(=N)N)NC(=O)[C@H](CC(C)C)NC(=O)[C@H](Cc1ccccc1)NC(=O)[C@H](CCC(=O)O)NC(=O)[C@H](C)NC(=O)[C@H](CC(C)C)NC(=O)[C@H](CCCNC(=N)N)NC(=O)[C@H](CCC(N)=O)NC(=O)[C@@H](NC(=O)[C@H](C)NC(=O)[C@@H]1CSSC[C@H](NC(=O)[C@H](CCCCN)NC(=O)CC[C@H](NC(=O)CCCCCCCCCCCCCCCCCCC(=O)O)C(=O)O)C(=O)N[C@@H](CC(N)=O)C(=O)N[C@@H]([C@@H](C)O)C(=O)N[C@@H](C)C(=O)N[C@@H]([C@@H](C)O)C(=O)N1)[C@@H](C)O)C(=O)N1CCC[C@H]1C(=O)N[C@@H](CO)C(=O)N[C@@H](CO)C(=O)N[C@H](C(=O)N[C@@H](CC(N)=O)C(=O)N[C@H](C(=O)NCC(=O)N[C@@H](CO)C(=O)N[C@@H](CCC(=O)O)C(=O)N[C@H](C(=O)N[C@@H](Cc1ccc(O)cc1)C(N)=O)[C@@H](C)O)C(C)C)[C@@H](C)O
notes: Synthetic analogue; also called compound 22
B5: N^ε1-[2-[2-[2-[[(4S)-4-carboxy-4-(19-carboxynonadecanoylamino)butanoyl]amino]ethoxy]ethoxy]acetyl]-[Arg17,Pro21,Pro27,Glu35]-h-amylin (peptide)
peptide: K([AEEA-γGlu-C20 diacid])CNTATCATQRLANFLRHSSPNFGAIPSSTNVGSETY-NH2
modifications: disulfide 2-7; N-terminus assumed
SMILES: CC[C@H](C)[C@H](NC(=O)[C@H](C)NC(=O)CNC(=O)[C@H](Cc1ccccc1)NC(=O)[C@H](CC(N)=O)NC(=O)[C@@H]1CCCN1C(=O)[C@H](CO)NC(=O)[C@H](CO)NC(=O)[C@H](Cc1c[nH]cn1)NC(=O)[C@H](CCCNC(=N)N)NC(=O)[C@H](CC(C)C)NC(=O)[C@H](Cc1ccccc1)NC(=O)[C@H](CC(N)=O)NC(=O)[C@H](C)NC(=O)[C@H](CC(C)C)NC(=O)[C@H](CCCNC(=N)N)NC(=O)[C@H](CCC(N)=O)NC(=O)[C@@H](NC(=O)[C@H](C)NC(=O)[C@@H]1CSSC[C@H](NC(=O)[C@@H](N)CCCCNC(=O)COCCOCCNC(=O)CC[C@H](NC(=O)CCCCCCCCCCCCCCCCCCC(=O)O)C(=O)O)C(=O)N[C@@H](CC(N)=O)C(=O)N[C@@H]([C@@H](C)O)C(=O)N[C@@H](C)C(=O)N[C@@H]([C@@H](C)O)C(=O)N1)[C@@H](C)O)C(=O)N1CCC[C@H]1C(=O)N[C@@H](CO)C(=O)N[C@@H](CO)C(=O)N[C@H](C(=O)N[C@@H](CC(N)=O)C(=O)N[C@H](C(=O)NCC(=O)N[C@@H](CO)C(=O)N[C@@H](CCC(=O)O)C(=O)N[C@H](C(=O)N[C@@H](Cc1ccc(O)cc1)C(N)=O)[C@@H](C)O)C(C)C)[C@@H](C)O
notes: Synthetic analogue; also called compound 26

What follows are binders tested against T1, human calcitonin receptor (assay: SPA radioligand competition (125I-calcitonin), membranes of BHK cells with human calcitonin receptor).
In short: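 BHK hCTR membranes 35 ng/μL + SPA beads 0.05 mg/well; buffer 50 mM Hepes pH 7.4, 1 mM CaCl2, 5 mM MgCl₂, 0.1% OA, 0.02% Tween20. 120 min, 25° C., shaking. Scintillation count; IC50 by one-site binding competition.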

Point of comparison: B1, IC50 21.6 nM. Against it:
- B2 — 2-fold higher, 43.4 nM
- B3 — 1.7-fold lower, 12.9 nM
- B4 — 2.2-fold lower, 9.73 nM
- B5 — within 1.5-fold, 25.3 nM

What follows are binders tested against T1, human calcitonin receptor (assay: ratio IC50 hCTR / IC50 hAmylin-R of the two SPA competition assays; reference: human amylin receptor).
Description: The resulting pellet was resuspended, homogenized and centrifuged (20.000 rpm, 15 min) in a buffer containing 20 mM Na-HEPES and 0.1 mM EDTA (pH 7.4, buffer 2). The resulting pellet was resuspended in buffer 2 and protein concentration was measured (BCA protein Assay, Pierce). The homogenate was kept cold during the whole procedure. The membranes were kept at −80° C. until use. The assay was performed in a 384 well Optiplate (PerkinElmer) in a total volume of 40 ul. Membranes were mixed with SPA beads. Final concentration of membranes 35 ng/μL final and SPA beads was 0.05 mg/well. Test-compounds were dissolved in DMSO and further diluted in assay buffer (50 mM Hepes, pH 7.4, 1 mM CaCl2, 5 mM MgCl₂, 0.1% OA and 0.02% Tween20). […] The final mixture was incubated with shaking at 400 rpm for 120 min at 25° C. prior to centrifugation (1500 rpm, 10 min). Samples were analyzed on TopCounter™ (Packard). The IC₅₀ was calculated using (one site binding competition analysis) GraphPad Prism5 as a measure of receptor affinity.
Membranes were prepared in the following way; the cells were rinsed with PBS and incubated with Versene for approximately 5 min before harvesting. The cells were flushed with PBS and the cell-suspension was centrifuged for 5 min at 1000 rpm. Cells were homogenized (Ultrathurrax) in a buffer containing 20 mM Na-HEPES and 10 mM EDTA (pH 7.4) and centrifuged at 20.000 rpm for 15 min. The resulting pellet was resuspended, homogenized and centrifuged (20.000 rpm, 15 min) in a buffer containing 20 mM Na-HEPES and 0.1 mM EDTA (pH 7.4, buffer 2). The resulting pellet was resuspended in buffer 2 and protein concentration was measured (BCA protein Assay, Pierce). The homogenate was kept cold during the whole procedure. The membranes were kept at −80° C. until use. Assay was performed in a 384 well Optiplate (PerkinElmer) in a total volume of 40 ul. Membranes were mixed with SPA beads.

Point of comparison: B3, “Ratio hCT/hAmylin binding” value 10.8. Against it:
- B1 — higher, 23.6
- B2 — higher, 56.5
- B4 — higher, 12.3
- B5 — higher, 47.5
